The values below come from article PMC9472132 (Journal for Immunotherapy of Cancer, 2022).

In assay [1] the target is human CD27-IgG fusion protein (Homo sapiens (Human)., UniProt P26842). The experiment in a line: SPR. (In SPR one partner is held on a chip, and binding of the other changes the refractive index at the surface.)
Assay [2] concerns the target rhesus monkey CD27-IgG fusion protein (Macaca mulatta, UniProt F7BYS2). The experiment in a line: SPR.
The target in assay [3] is T1, human CD27 expressed on CHO-K1 cells (human, UniProt P26842). The experiment in a line: flow cytometry on cells. (Flow cytometry measures light scatter and fluorescence of single cells or particles in a stream.)
For assay [4], the target named is rhesus monkey CD27 expressed on CHO-K1 cells (Macaca mulatta, UniProt F7BYS2). In words: ELISA. For orientation: ELISA stands for enzyme-linked immunosorbent assay.
The target of assay [5] is T1, human CD27 expressed on CHO-K1 cells. In words: ELISA.
Assay [6] concerns the target T2, human CD27 on primary peripheral blood T cells (Homo sapiens (Human)., UniProt P26842). In words: flow cytometry on cells.
Assay [7] deals with T3, rhesus monkey CD27 on primary peripheral blood T cells (Macaca mulatta, UniProt F7BYS2). In words: flow cytometry on cells.
Assay [8] addresses T2, human CD27 on primary peripheral blood …. The experiment in a line: flow cytometry on cells. This is another data set of the same source.
Assay [9] concerns the target T3, rhesus monkey CD27 on primary …. In words: flow cytometry on cells. The source holds these as a separate data set.

Read-outs that look alike come from different tables or passages of the source.

B1: varlilumab analog (anti-CD27 fully human IgG1 antibody, made in-house from published patented sequences) (antibody, V domains shown)
VH: QVQLVESGGGVVQPGRSLRLSCAASGFTFSSYDMHWVRQAPGKGLEWVAVIWYDGSNKYYADSVKGRFTISRDNSKNTLYLQMNSLRAEDTAVYYCARGSGNWGFFDYWGQGTLVTVSS
VL: DIQMTQSPSSLSASVGDRVTITCRASQGISRWLAWYQQKPEKAPKSLIYAASSLQSGVPSRFSGSGSGTDFTLTISSLQPEDFATYYCQQYNTYPRTFGQGTKVEIK
On to B1, for which the Kd stood at 0.63 nM in assay [1] and 0.97 nM in assay [2]. Also, the koff amounted to 0.00012 s⁻¹ in assay [1] and 0.00022 s⁻¹ in assay [2]. For the same molecule, the results for the kon in [1] and in assay [2] were 190000 M⁻¹ s⁻¹ and 230000 M⁻¹ s⁻¹, respectively. Besides, in assay [3], it took 2.85 nM to reach half-maximal inhibition (IC50). For the same molecule, the EC50 in [4] is 0.193 nM; in assay [5] it was 0.325 nM; in assay [6] it was 1.54 nM; in assay [7], 1.58 nM; in assay [8], 1.3 nM; in assay [9], 1.92 nM.

B2: MK-5890 (humanized anti-human CD27 agonist antibody, hIgG1) (antibody, V domains shown)
VH: EIQLVQSGAEVKKPGASVKVSCKASGYTFTNYGMNWVKQAPGQGLKWMGWINTNTGEPTYAEEFKGRFTFTLDTSISTAYMELSSLRSEDTAVYYCAREGDAMDYWGQGTTVTVSS
VL: EIVLTQSPATLSLSPGERATLSCSASSSVSYMHWYQQKPGQAPKRWIYDTSKLASGVPARFSGSGSGTDYSLTISSLEPEDFAVYYCQQWNSYPFTFGQGTKLEIK
B2: the Kd was found to be 5.1 nM in assay [1] and 4.3 nM in assay [2]. For the same molecule, the koff in assay [1] came out at 0.0011 s⁻¹; in [2], 0.001 s⁻¹. Further, the kon in assay [1] came to 220000 M⁻¹ s⁻¹; in assay [2], 230000 M⁻¹ s⁻¹. For the same molecule, the IC50 in assay [3] was found to be 0.24 nM. For the same molecule, the concentration giving a half-maximal response (EC50) stood at 0.054 nM in [4]; 0.072 nM in assay [5]; 0.32 nM in assay [6]; 0.17 nM in assay [7]; 0.3 nM in [8]; 0.22 nM in assay [9].

The term Kd denotes the free concentration of one partner at which half of the binding sites on the other are occupied at equilibrium, for simple one-to-one binding. Usually koff stands for the rate constant with which the complex falls apart. As a reminder, the kon is the second-order rate constant of association. As a reminder, the IC50 is the concentration needed to halve the response being measured. One may read the EC50 as the concentration giving half of the maximal effect.
